From patent US20130040886A1 (BOARD OF TRUSTEES OF THE UNIVERSITY OF ILLINOIS, published 2013) come the findings set out here.

The target of assay [1] is T1, α11bβ3 integrin (platelet integrin αIIbβ3) from solubilized human platelets (human, UniProt P08514 32-1039; P05106 27-788).
T1 construct: mature; Native protein from solubilized human platelets, detected by immunoblot with Abcam antibodies
As to the kind of experiment: peptide affinity column with solubilized human platelets, western blot of eluates. An excerpt:
(§1) On this basis, subsequent experiments examined whether G₁₃SR2ₚₑₚ peptide (SEQ ID NO:5) does indeed directly interact with α11bβ₃ and/or one of its associated proteins in human platelets. In this respect, platelet α11bβ₃ integrin is known to exist in a complex with two cytoplasmic proteins, i.e., talin and kindlin-3 (Tadokoro, et al. (2003) Science 302:103-6; Moser, et al. (2008) Nature Med. 14:325-30). To determine whether G₁₃SR2ₚₑₚ, (SEQ ID NO:5) interacts with any of these proteins (or with the entire α11bβ₃, talin, kindlin-3 complex), peptide affinity columns using G₁₃SR2ₚₑₚ (SEQ ID NO:5) were employed. The affinity purified protein(s) from solubilized human platelets that specifically bound to the G₁₃SR2ₚₑₚ peptide were eluted, and analyzed by western blot for α11bβ₃ integrin, talin and kindlin-3. In similar experiments, the eluates from a peptide column using the G₁₃SR2-Random Peptide (SEQ ID NO:9) were also analyzed. […] This was supported by similar experiments using talin antibodies and the kindlin 3 antibody (Abcam).
For orientation: Immunoblotting shows a protein as a band on a membrane.

Assay [2] addresses T2, kindlin 3 (72 kD) from solubilized human platelets (human, UniProt Q86UX7 1-667).
T2 construct: mature; Native cytoplasmic protein from solubilized human platelets
The assay is described as above.
Description: as §1

The target in assay [3] is T1, α11bβ3 integrin (platelet integrin …). As to the kind of experiment: peptide affinity column with solubilized human platelets, immunoblot of eluate.
Description: as §1

Assay [4] addresses T2, kindlin 3 (72 kD) from solubilized …. The assay is described as above.
Description: as §1

Assay [5] deals with T3, α11bβ3-talin-kindlin 3 complex from solubilized human platelets (human, UniProt P08514 32-1039; P05106 27-788; Q9Y490 1-2541; Q86UX7 1-667).
T3 construct: mature
The assay is described as above.
Description: as §1

T2 sequence (Q86UX7 whole entry): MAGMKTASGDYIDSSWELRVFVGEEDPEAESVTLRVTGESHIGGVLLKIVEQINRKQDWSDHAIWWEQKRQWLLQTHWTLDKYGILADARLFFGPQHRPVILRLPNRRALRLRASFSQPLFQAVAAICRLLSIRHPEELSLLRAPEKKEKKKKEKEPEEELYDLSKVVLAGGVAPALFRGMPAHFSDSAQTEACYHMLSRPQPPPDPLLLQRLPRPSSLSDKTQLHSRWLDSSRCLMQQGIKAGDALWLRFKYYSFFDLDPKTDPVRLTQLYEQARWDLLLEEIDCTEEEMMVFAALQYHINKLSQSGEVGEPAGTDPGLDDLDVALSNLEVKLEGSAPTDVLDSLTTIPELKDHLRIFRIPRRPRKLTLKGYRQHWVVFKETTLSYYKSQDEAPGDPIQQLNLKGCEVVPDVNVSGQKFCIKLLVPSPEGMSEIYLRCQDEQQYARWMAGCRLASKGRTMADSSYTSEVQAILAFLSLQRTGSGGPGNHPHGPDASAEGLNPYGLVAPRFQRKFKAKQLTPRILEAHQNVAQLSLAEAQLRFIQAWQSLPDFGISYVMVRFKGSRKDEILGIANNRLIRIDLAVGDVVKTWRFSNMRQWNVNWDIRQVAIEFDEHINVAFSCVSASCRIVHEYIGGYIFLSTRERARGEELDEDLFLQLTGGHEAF

B1: G13SR2-Random Peptide, Gly-Phe-Asp-Glu-Trp-Glu-Val-Ser-Phe-Lys-Gly-Cys-Gln-Arg-Arg-Ser-Arg (peptide)
peptide: GFDEWEVSFKGCQRRSR
notes: Control peptide immobilised on a peptide column; also called Random Peptide control
On to B1, for which the binding result in assay [1] and in assay [2] was “no binding” each time.

B2: G13 Switch Region 2 peptide (G13SR2pep), Val-Gly-Gly-Gln-Arg-Ser-Glu-Arg-Lys-Arg-Trp-Phe-Glu-Cys-Phe-Asp-Ser (peptide)
peptide: VGGQRSERKRWFECFDS
notes: how it was coupled is not described; also called G13SR2pep peptide; Gα13 SR2 peptide
Regarding B2, the binding result in assay [3], in assay [4] and in assay [5] was “binds” throughout.
